Experimental data taken from PMC3162478 (Nature, 2011).

Experiments:
[1] = biological target: FimH adhesin (Escherichia coli, UniProt P08191 22-300); test: AUC
[2] = biological target: T1, FimD usher, full-length (undigested), with C-terminal Strep-tag II (Escherichia coli, UniProt P30130 46-878); test: AUC
T1 sequence: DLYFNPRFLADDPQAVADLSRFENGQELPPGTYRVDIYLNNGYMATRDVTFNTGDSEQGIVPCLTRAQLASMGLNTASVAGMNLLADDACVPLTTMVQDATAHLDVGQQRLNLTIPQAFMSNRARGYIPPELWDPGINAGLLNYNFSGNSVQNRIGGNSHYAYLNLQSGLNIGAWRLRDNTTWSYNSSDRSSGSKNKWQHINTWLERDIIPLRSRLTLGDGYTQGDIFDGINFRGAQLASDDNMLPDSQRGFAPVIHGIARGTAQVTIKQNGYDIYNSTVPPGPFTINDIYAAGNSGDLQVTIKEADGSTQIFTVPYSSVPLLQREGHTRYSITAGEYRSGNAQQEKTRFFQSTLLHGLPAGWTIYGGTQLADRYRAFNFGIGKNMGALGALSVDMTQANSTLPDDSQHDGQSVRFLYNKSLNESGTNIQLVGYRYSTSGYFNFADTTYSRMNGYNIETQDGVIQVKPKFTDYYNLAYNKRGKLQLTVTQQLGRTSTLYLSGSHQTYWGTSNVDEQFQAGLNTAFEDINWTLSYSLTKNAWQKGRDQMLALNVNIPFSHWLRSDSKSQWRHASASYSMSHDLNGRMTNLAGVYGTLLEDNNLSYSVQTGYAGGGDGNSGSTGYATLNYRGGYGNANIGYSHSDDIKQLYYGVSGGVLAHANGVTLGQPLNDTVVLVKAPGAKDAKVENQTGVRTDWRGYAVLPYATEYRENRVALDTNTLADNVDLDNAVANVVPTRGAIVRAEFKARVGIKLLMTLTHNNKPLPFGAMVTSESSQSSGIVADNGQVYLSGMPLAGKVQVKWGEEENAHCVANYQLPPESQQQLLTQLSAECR

Sequence of FimH adhesin (P08191 22-300): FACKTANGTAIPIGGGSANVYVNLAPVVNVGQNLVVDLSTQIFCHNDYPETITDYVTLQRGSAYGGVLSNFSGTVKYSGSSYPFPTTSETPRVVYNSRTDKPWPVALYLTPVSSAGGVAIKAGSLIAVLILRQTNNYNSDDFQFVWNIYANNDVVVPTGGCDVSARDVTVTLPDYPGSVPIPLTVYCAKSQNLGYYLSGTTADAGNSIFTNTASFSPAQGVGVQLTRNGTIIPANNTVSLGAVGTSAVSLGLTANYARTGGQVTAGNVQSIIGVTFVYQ

B1: FimC chaperone (His-tagged, from pETS1001 fimCHisH) (natural protein)
chain: GVALGATRVIYPAGQKQEQLAVTNNDENSTYLIQSWVENADGVKDGRFIVTPPLFAMKGKKENTLRILDATNNQLPQDRESLFWMNVKAIPSMDKSKLTENTLQLAIISRIKLYYRPAKLALPPDQAAEKLRFRRSANSLTLINPTPYYLTVTELNAGTRVLENALVPPMGESTVKLPSDAGSNITYRTINDYGALTPKMTGVME
- stoichiometry N [1]: 1
- stoichiometry N [2]: 1
